According to PMC11079029, “Intramolecular autoinhibition regulates the selectivity of PRPF40A tandem WW domains for proline-rich motifs” (Nature Communications, 2024):

How the values were obtained:
[1] = molecular target: PRPF40A N-ext-WW12 (N-terminally extended WW tandem, residues 56-236) (human) (UniProt O75400); test: ITC; PRPF40A construct (WW12, N-ext-WW12 or its mutant) in the cell, GB1-SF1 or GB1-SF3A1 construct in the syringe (as shown in Supplementary Figures 16 and 21); 25 °C, 20 mM sodium phosphate pH 6.5, 100 mM NaCl; one-site binding model; at least duplicates; affinities apparent
[2] = molecular target: PRPF40A N-ext-WW12 mutant (residues 56-236, PPVP/PALPP motifs changed to alanines) (human) (UniProt O75400); test: as above
[3] = molecular target: GB1-SF1 16-mer peptide 596-611; test: ITC; GB1-peptide or GB1-SF1 construct in the cell, PRPF40A WW12 in the syringe (as shown in Supplementary Figures 7 and 16A); 25 °C, 20 mM sodium phosphate pH 6.5, 100 mM NaCl; one-site binding model; at least duplicates; affinities apparent
[4] = molecular target: GB1-SF1 16-mer peptide 470-485; test: as above
[5] = molecular target: GB1-SF1 16-mer peptide 575-590 (SF1 PRPF40A WW binding site, GB1-tagged); test: as above
[6] = molecular target: GB1-SF1 16-mer peptide 478-493; test: as above
[7] = molecular target: GB1-SF1 16-mer peptide 425-440; test: as above
[8] = molecular target: GB1-SF1 16-mer peptide 623-638; test: as above
[9] = molecular target: GB1-SF1(596-611) 16-mer peptide; test: ITC; MicroCal PEAQ-ITC, 25 °C, 20 mM sodium phosphate pH 6.5, 100 mM NaCl; PRPF40A constructs and GB1-tagged SF1 16-mer peptides; who was in the syringe is not stated for these panels (Fig. 2B, Fig. 5C); one-site model

| Substance | Kd [1] [µM] | stoichiometry N [1] [sites] | Kd [2] [µM] | stoichiometry N [2] [sites] | Kd [3] [µM] | stoichiometry N [3] [sites] | Kd [4] [µM] | stoichiometry N [4] [sites] | Kd [5] [µM] | stoichiometry N [5] [sites] | Kd [6] [µM] | stoichiometry N [6] [sites] | Kd [7] [µM] | stoichiometry N [7] [sites] | Kd [8] [µM] | stoichiometry N [8] [sites] | Kd [9] [µM] |
| --- | --- | --- | --- | --- | --- | --- | --- | --- | --- | --- | --- | --- | --- | --- | --- | --- | --- |
| GB1-SF1 16-mer peptide 575-590 (SF1 PRPF40A WW binding site, GB1-tagged) | 8.71 | 0.88 | 2.21 | 0.84 | – | – | – | – | – | – | – | – | – | – | – | – | – |
| PRPF40A WW12 (tandem WW domains, residues 141-236) (from UniProt O75400 141-236) (domain or fragment) | – | – | – | – | 65.9 | 1.1 | 13.9 | 0.9 | 1.4 | 1 | 9.59 | 0.8 | 20.2 | 0.87 | 23.3 | 0.95 | 65.9 |
